Broadly, the Kd is the free concentration of one partner at which half of the binding sites on the other are occupied at equilibrium, for simple one-to-one binding. Low readings indicate tighter binding, high ones weaker binding.

Drawing on article PMC4078514 (2014), this text covers Kd for three molecules.

In the test the target is gastrin-releasing peptide receptor (GRP-r) (Homo sapiens, UniProt P30550). The test can be described thus: radioligand saturation binding on PC-3 cells.

No end group written: not given here.

gastrin-releasing peptide receptor (GRP-r), sequence (P30550 whole entry): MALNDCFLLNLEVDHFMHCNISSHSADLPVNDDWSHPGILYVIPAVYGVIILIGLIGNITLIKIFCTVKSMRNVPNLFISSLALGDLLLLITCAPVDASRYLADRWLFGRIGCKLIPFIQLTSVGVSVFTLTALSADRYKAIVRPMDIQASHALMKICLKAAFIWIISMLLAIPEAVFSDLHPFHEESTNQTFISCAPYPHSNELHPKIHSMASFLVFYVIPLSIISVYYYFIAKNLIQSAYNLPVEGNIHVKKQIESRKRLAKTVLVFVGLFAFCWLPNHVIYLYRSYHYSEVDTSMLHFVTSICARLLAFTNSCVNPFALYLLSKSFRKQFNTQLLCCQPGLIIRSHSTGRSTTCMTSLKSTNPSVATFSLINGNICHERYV

B1: [99mTc(CO)3(16)] BBS reference conjugate (peptide)
chain: QWAVGHL
modifications: not fully specified (N-terminus, C-terminus); also: triazole 99mTc(CO)3 chelate, methyl group in place of shepherdin
With B1, the Kd came out at 5.6 nM. This lies in the single-digit nanomolar range.

B2: [99mTc(CO)3(15)] BBS-scrambled shepherdin(79-83) conjugate (peptide)
chain: QWAVGHL
modifications: not fully specified (C-terminus); also: (βAla)3 spacer, triazole-Lys 99mTc(CO)3 chelate, succinyl-linked scrambled shepherdin SGKHS
In the case of B2, binding was put at a Kd of 11.3 nM.

B3: [99mTc(CO)3(14)] BBS-shepherdin(79-83) conjugate (peptide)
chain: QWAVGHL
modifications: not fully specified (C-terminus); also: (βAla)3 spacer, triazole-Lys 99mTc(CO)3 chelate, succinyl-linked shepherdin KHSSG
As for B3, binding was characterised by a dissociation constant (Kd) of 10.9 nM. The Kd values of the last two molecules are within 1.5-fold of each other.
